What was measured:
Assay in all cases: chemical modification
Settings in all cases: 37 °C, added salt not given, universal pH buffer: 5 mM CHES, 5 mM HEPES, 5 mM MES, degassed and charged with nitrogen
[1] = biological target: Cys3 (position 3, ---YGCAAADA)
[2] = biological target: Cys3 (position 3, ---KKCPYSAD)
[3] = biological target: Cys3 (position 3, ---GGCPYADA)
[4] = biological target: Cys3 (position 3, ---KKCPYSDA)
[5] = biological target: Cys3 (position 3, ---KKCPYSAA)
[6] = biological target: Cys3 (position 3, ---YGCPAADA)
[7] = biological target: Cys3 (position 3, ---YGCAAAAA)
[8] = biological target: Cys3 (position 3, ---RRCPYSDA)
[9] = free peptide, 2-4Zn(II) absent. Peptide-a of this series, which lacks Cys, is described as a random coil without zinc complex.
[10] = peptide (4 µM) in binding complex with the tetranuclear zinc complex 2-4Zn(II) (14 µM), alpha-helical conformation induced by the complex

YGCAAADAAADAAADAAAD [peptide-d (Asp-rich alpha-helical tag peptide) (synthetic construct)]
pKa [1, 9]: 8.89
pKa [1, 10]: 7.94

KKCPYSADAAADAAADAAAD [peptide-j (synthetic construct)]
pKa [2, 9]: 7.94
pKa [2, 10]: 7.08

GGCPYADAAADAAADAAAD [peptide-e (Cys-Pro-Tyr-Ala glutaredoxin-mimicking tag peptide) (synthetic construct)]
pKa [3, 9]: 8.48
pKa [3, 10]: 7.46

KKCPYSDAAADAAADAAAD [peptide-g (synthetic construct)]
pKa [4, 9]: 8.04
pKa [4, 10]: 7.13

KKCPYSAADAAADAAADAAAD [peptide-k (helixD2-tag peptide) (synthetic construct)]
pKa [5, 9]: 7.95
pKa [5, 10]: 7.14

YGCPAADAAADAAADAAAD [peptide-f (synthetic construct)]
pKa [6, 9]: 8.93
pKa [6, 10]: 7.80

YGCAAAAAADDDDGDDDD [peptide-i (D4-tag peptide) (synthetic construct)]
pKa [7, 9]: 8.96
pKa [7, 10]: 8.22

RRCPYSDAAADAAADAAAD [peptide-h (synthetic construct)]
pKa [8, 9]: 8.02
pKa [8, 10]: 7.18

From PMC6906691
